Measurements taken from IntAct's records for PubMed 16000308.

B1: Melanoma-associated antigen D1 (Homo sapiens), Q9Y5V3 (parent)
chain: MAQKMDCGAGLLGFQAEASVEDSALLMQTLMEAIQISEAPPTNQATAAASPQSSQPPTANEMADIQVSAAAARPKSAFKVQNATTKGPNGVYDFSQAHNAKDVPNTQPKAAFKSQNATPKGPNAAYDFSQAATTGELAANKSEMAFKAQNATTKVGPNATYNFSQSLNANDLANSRPKTPFKAWNDTTKAPTADTQTQNVNQAKMATSQADIETDPGISEPDGATAQTSADGSQAQNLESRTIIRGKRTRKINNLNVEENSSGDQRRAPLAAGTWRSAPVPVTTQNPPGAPPNVLWQTPLAWQNPSGWQNQTARQTPPARQSPPARQTPPAWQNPVAWQNPVIWPNPVIWQNPVIWPNPIVWPGPVVWPNPLAWQNPPGWQTPPGWQTPPGWQGPPDWQGPPDWPLPPDWPLPPDWPLPTDWPLPPDWIPADWPIPPDWQNLRPSPNLRPSPNSRASQNPGAAQPRDVALLQERANKLVKYLMLKDYTKVPIKRSEMLRDIIREYTDVYPEIIERACFVLEKKFGIQLKEIDKEEHLYILISTPESLAGILGTTKDTPKLGLLLVILGVIFMNGNRASEAVLWEALRKMGLRPGVRHPLLGDLRKLLTYEFVKQKYLDYRRVPNSNPPEYEFLWGLRSYHETSKMKVLRFIAEVQKRDPRDWTAQFMEAADEALDALDAAAAEAEARAEARTRMGIGDEAVSGPWSWDDIEFELLTWDEEGDFGDPWSRIPFTFWARYHQNARSRFPQTFAGPIIGPGGTASANFAANFGAIGFFWVE
partner: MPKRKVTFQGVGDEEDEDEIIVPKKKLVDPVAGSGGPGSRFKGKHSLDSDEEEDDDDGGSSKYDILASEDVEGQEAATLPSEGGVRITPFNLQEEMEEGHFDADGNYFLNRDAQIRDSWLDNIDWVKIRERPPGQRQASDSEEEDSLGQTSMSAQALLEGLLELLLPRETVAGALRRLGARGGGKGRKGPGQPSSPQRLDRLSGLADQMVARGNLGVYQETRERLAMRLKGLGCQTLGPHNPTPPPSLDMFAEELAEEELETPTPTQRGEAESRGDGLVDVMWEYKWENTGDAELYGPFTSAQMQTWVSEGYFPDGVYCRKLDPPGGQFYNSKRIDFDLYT

Variants of: B1
Conditions: with cd2b2_human CD2BP2, O95400

Effect of a mutation on the interaction: each site, then its substitutions
W386: A disrupting interaction strength; E disrupting interaction strength; H disrupting interaction strength; I decreasing interaction strength; G disrupting interaction strength; N disrupting interaction strength; K decreasing interaction strength; D disrupting interaction strength; C disrupting interaction strength; P decreasing interaction strength; S decreasing interaction strength; T disrupting interaction strength; M decreasing interaction strength; V disrupting interaction strength
W380: D decreasing interaction strength; A decreasing interaction strength; E disrupting interaction strength
T388: D decreasing interaction strength; E decreasing interaction strength; C decreasing interaction strength
P384: T disrupting interaction strength; R disrupting interaction strength; C disrupting interaction strength; D disrupting interaction strength; H disrupting interaction strength; V disrupting interaction strength; M disrupting interaction strength; F disrupting interaction strength; K disrupting interaction strength; A disrupting interaction strength; E disrupting interaction strength; Y disrupting interaction strength; W disrupting interaction strength; Q disrupting interaction strength; S disrupting interaction strength; G disrupting interaction strength; L disrupting interaction strength; I disrupting interaction strength; N disrupting interaction strength
G385: S disrupting interaction strength; L disrupting interaction strength; F disrupting interaction strength; K disrupting interaction strength; T disrupting interaction strength; W disrupting interaction strength; I disrupting interaction strength; E disrupting interaction strength; C disrupting interaction strength; P decreasing interaction strength; M disrupting interaction strength; Y disrupting interaction strength; Q disrupting interaction strength; A disrupting interaction strength; D disrupting interaction strength; R decreasing interaction strength; H disrupting interaction strength; N disrupting interaction strength
G379: E decreasing interaction strength; C decreasing interaction strength; A decreasing interaction strength; D decreasing interaction strength; W decreasing interaction strength
T382: C disrupting interaction strength; D disrupting interaction strength; E disrupting interaction strength; L disrupting interaction strength; N decreasing interaction strength; M decreasing interaction strength
Q387: D disrupting interaction strength; C disrupting interaction strength; W disrupting interaction strength; E disrupting interaction strength; A decreasing interaction strength; Y disrupting interaction strength
P378: A decreasing interaction strength; W decreasing interaction strength; G decreasing interaction strength; M decreasing interaction strength; E decreasing interaction strength; D decreasing interaction strength; H decreasing interaction strength; C decreasing interaction strength
P383: C disrupting interaction strength; T disrupting interaction strength; M disrupting interaction strength; V disrupting interaction strength; Q disrupting interaction strength; G disrupting interaction strength; L disrupting interaction strength; E disrupting interaction strength; F disrupting interaction strength; N disrupting interaction strength; R disrupting interaction strength; K disrupting interaction strength; S disrupting interaction strength; Y disrupting interaction strength; A disrupting interaction strength; I disrupting interaction strength; D disrupting interaction strength; H disrupting interaction strength; W disrupting interaction strength
Q381: C decreasing interaction strength; D decreasing interaction strength; Y decreasing interaction strength; E decreasing interaction strength
